From the supplement of paper PMC5998384 come the findings set out here.

In series [1] the test system is HeLa Kyoto. Kind of series: solubility change mitosis vs G1/S (difference of NP-40 vs SDS log2 ratios) (log2 ratio difference); higher = more soluble in mitosis.
Series [2] relates to HeLa Kyoto. Kind of series: thermal stability score vs G1/S (z-score of summed log2 fold changes over temperatures); higher = more thermally stable than in G1/S.
In series [3] the test system is HeLa Kyoto. Kind of series: melting temperature (median over replicates), in situ; higher = more thermally stable.
Series [4] has as its system HeLa Kyoto. Kind of series: solubility in G1/S (NP-40 vs SDS abundance) (log2 ratio); higher = more soluble. The conditions noted are these: cell cycle stage: G1/S.
The mark [5] stands for this setting: cell cycle stage: early G1 (4.5 h after nocodazole release).
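Wherever melting temperature (median over replicates), in situ is given: HeLa Kyoto cells synchronized by double thymidine or nocodazole block, proteins quantified by TMT10plex mass spectrometry, three independent biological replicates.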
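Wherever solubility change mitosis vs G1/S (difference of NP-40 vs SDS log2 ratios) is given: synchronized HeLa Kyoto cells (double thymidine block for G1/S, nocodazole release for mitosis), protein amounts in NP-40 versus SDS lysates quantified by mass spectrometry, three biological replicates.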
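Wherever solubility in G1/S (NP-40 vs SDS abundance) is given: HeLa Kyoto cells arrested at G1/S by double thymidine block, proteins quantified by TMT10plex mass spectrometry in mild NP-40 versus SDS extracts, three biological replicates.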
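Wherever thermal stability score vs G1/S (z-score of summed log2 fold changes over temperatures) is given: synchronized HeLa Kyoto cells, proteins quantified by TMT10plex mass spectrometry, three biological replicates, mitosis taken 0.5 h after nocodazole release, G1/S directly after double thymidine block.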

For “MEDLDQSPLVSSSDSPPRPQPAFKYQFVREPEDEEEEEEEEEEDEDEDLEELEVLERKPAAGLSAAPVPTAPAAGAPLMDFGNDFVPPAPRGPLPAAPPVAPERQPSWDPSPVSSTVPAPSPLSAAAVSPSKLPEDDEPPARPPPPPPASVSPQAEPVWTPPAPAPAAPPSTPAAPKRRGSSGSVDETLFALPAASEPVIRSSAENMDLKEQPGNTISAGQEDFPSVLLETAASLPSLSPLSAASFKEHEYLGNLSTVLPTEGTLQENVSEASKEVSEKAKTLLIDRDLTEFSELEYSEMGSSFSVSPKAESAVIVANPREEIIVKNKDEEEKLVSNNILHNQQELPTALTKLVKEDEVVSSEKAKDSFNEKRVAVEAPMREEYADFKPFERVWEVKDSKEDSDMLAAGGKIESNLESKVDKKCFADSLEQTNHEKDSESSNDDTSFPSTPEGIKDRSGAYITCAPFNPAATESIATNIFPLLGDPTSENKTDEKKIEEKKAQIVTEKNTSTKTSNPFLVAAQDSETDYVTTDNLTKVTEEVVANMPEGLTPDLVQEACESELNEVTGTKIAYETKMDLVQTSEVMQESLYPAAQLCPSFEESEATPSPVLPDIVMEAPLNSAVPSAGASVIQPSSSPLEASSVNYESIKHEPENPPPYEEAMSVSLKKVSGIKEEIKEPENINAALQETEAPYISIACDLIKETKLSAEPAPDFSDYSEMAKVEQPVPDHSELVEDSSPDSEPVDLFSDDSIPDVPQKQDETVMLVKESLTETSFESMIEYENKEKLSALPPEGGKPYLESFKLSLDNTKDTLLPDEVSTLSKKEKIPLQMEELSTAVYSNDDLFISKEAQIRETETFSDSSPIEIIDEFPTLISSKTDSFSKLAREYTDLEVSHKSEIANAPDGAGSLPCTELPHDLSLKNIQPKVEEKISFSDDFSKNGSATSKVLLLPPDVSALATQAEIESIVKPKVLVKEAEKKLPSDTEKEDRSPSAIFSAELSKTSVVDLLYWRDIKKTGVVFGASLFLLLSLTVFSIVSVTAYIALALLSVTISFRIYKGVIQAIQKSDEGHPFRAYLESEVAISEELVQKYSNSALGHVNCTIKELRRLFLVDDLVDSLKFAVLMWVFTYVGALFNGLTLLILALISLFSVPVIYERHQAQIDHYLGLANKNVKDAMAKIQAKIPGLKRKAE [RTN4]”, the “solubility change mitosis (log2)” value in series [1] is -0.155. Besides, the thermal stability score in series [2] (setting [5]) was -0.746; in series [2] (cell cycle stage: mitosis), -1.43. For the same sequence, the melting temperature in series [3] (cell cycle stage: G1/S) was determined as 56.6 °C; in series [3] (cell cycle stage: mitosis), 56.7 °C. The “solubility in G1/S (log2)” value in series [4] is -0.0792.
In the case of “MDRNPSPPPPGRDKEEEEEVAGGDCIGSTVYSKHWLFGVLSGLIQIVSPENTKSSSDDEEQLTELDEEMENEICRVWDMSMDEDVALFLQEFNAPDIFMGVLAKSKCPRLREICVGILGNMACFQEICVSISSDKNLGQVLLHCLYDSDPPTLLETSRLLLTCLSQAEVASVWVERIQEHPAIYDSICFIMSSSTNVDLLVKVGEVVDKLFDLDEKLMLEWVRNGAAQPLDQPQEESEEQPVFRLVPCILEAAKQVRSENPEWLDVYMHILQLLTTVDDGIQAIVHCPDTGKDIWNLLFDLVCHEFCQSDDPPIILQEQKTVLASVFSVLSAIYASQTEQEYLKIEKVDLPLIDSLIRVLQNMEQCQKKPENSAESNTEETKRTDLTQDDFHLKILKDILCEFLSNIFQALTKETVAQGVKEGQLSKQKCSSAFQNLLPFYSPVVEDFIKILREVDKALADDLEKNFPSLKVQT [SAAL1]”, the “solubility change mitosis (log2)” value in series [1] turned out to be 0.00183. The thermal stability score in series [2] (setting [5]) is 0.137; in series [2] (cell cycle stage: mitosis), 0.212. Further, the values for the melting temperature in series [3] (cell cycle stage: G1/S) and in series [3] (cell cycle stage: mitosis) were 52.3 °C and 50.6 °C, respectively. Further, the “solubility in G1/S (log2)” value in series [4] worked out at 0.294.
With “MAHVGSRKRSRSRSRSRGRGSEKRKKKSRKDTSRNCSASTSQGRKASTAPGAEASPSPCITERSKQKARRRTRSSSSSSSSSSSSSSSSSSSSSSSSSDGRKKRGKYKDKRRKKKKKRKKLKKKGKEKAEAQQVEALPGPSLDQWHRSAGEEEDGPVLTDEQKSRIQAMKPMTKEEWDARQSIIRKVVDPETGRTRLIKGDGEVLEEIVTKERHREINKQATRGDCLAFQMRAGLLP [ARL6IP4]”, the “solubility change mitosis (log2)” value in series [1] amounted to 0.853. The figures for the thermal stability score in series [2] (setting [5]) and in series [2] (cell cycle stage: mitosis) were -1.78 and -3.1, respectively. Also, the melting temperature stood at 52.6 °C in series [3] (cell cycle stage: G1/S) and 52 °C in series [3] (cell cycle stage: mitosis). In series [4], the “solubility in G1/S (log2)” value was -0.997.
Consider “MYHSLSETRHPLQPEEQEVGIDPLSSYSNKSGGDSNKNGRRTSSTLDSEGTFNSYRKEWEELFVNNNYLATIRQKGINGQLRSSRFRSICWKLFLCVLPQDKSQWISRIEELRAWYSNIKEIHITNPRKVVGQQDLMINNPLSQDEGSLWNKFFQDKELRSMIEQDVKRTFPEMQFFQQENVRKILTDVLFCYARENEQLLYKQGMHELLAPIVFVLHCDHQAFLHASESAQPSEEMKTVLNPEYLEHDAYAVFSQLMETAEPWFSTFEHDGQKGKETLMTPIPFARPQDLGPTIAIVTKVNQIQDHLLKKHDIELYMHLNRLEIAPQIYGLRWVRLLFGREFPLQDLLVVWDALFADGLSLGLVDYIFVAMLLYIRDALISSNYQTCLGLLMHYPFIGDVHSLILKALFLRDPKRNPRPVTYQFHPNLDYYKARGADLMNKSRTNAKGAPLNINKVSNSLINFGRKLISPAMAPGSAGGPVPGGNSSSSSSVVIPTRTSAEAPSHHLQQQQQQQRLMKSESMPVQLNKGLSSKNISSSPSVESLPGGREFTGSPPSSATKKDSFFSNISRSRSHSKTMGRKESEEELEAQISFLQGQLNDLDAMCKYCAKVMDTHLVNIQDVILQENLEKEDQILVSLAGLKQIKDILKGSLRFNQSQLEAEENEQITIADNHYCSSGQGQGRGQGQSVQMSGAIKQASSETPGCTDRGNSDDFILISKDDDGSSARGSFSGQAQPLRTLRSTSGKSQAPVCSPLVFSDPLMGPASASSSNPSSSPDDDSSKDSGFTIVSPLDI [TBC1D5]”, for which the “solubility change mitosis (log2)” value in series [1] was -0.272. In addition, the thermal stability score in series [2] (setting [5]) is 0.296; in series [2] (cell cycle stage: mitosis), 0.901. The melting temperature in series [3] (cell cycle stage: G1/S) amounted to 50.7 °C; in series [3] (cell cycle stage: mitosis), 50.1 °C. Besides, the “solubility in G1/S (log2)” value in series [4] was determined as 0.207.
